From patent US12599645B2, “Antibodies which bind to lysophosphatidic acid receptor 1 (LPAR1)” (DJS ANTIBODIES LTD, priority 2021, dated 2026)

Biological target: LPAR1 (Homo sapiens, UniProt Q92633)
Assay: LPAR1 binding affinity during discovery and affinity maturation, method not stated
Design: expressed in transfected cells
Conditions: stated in words

Sequence of LPAR1 (Q92633 whole entry): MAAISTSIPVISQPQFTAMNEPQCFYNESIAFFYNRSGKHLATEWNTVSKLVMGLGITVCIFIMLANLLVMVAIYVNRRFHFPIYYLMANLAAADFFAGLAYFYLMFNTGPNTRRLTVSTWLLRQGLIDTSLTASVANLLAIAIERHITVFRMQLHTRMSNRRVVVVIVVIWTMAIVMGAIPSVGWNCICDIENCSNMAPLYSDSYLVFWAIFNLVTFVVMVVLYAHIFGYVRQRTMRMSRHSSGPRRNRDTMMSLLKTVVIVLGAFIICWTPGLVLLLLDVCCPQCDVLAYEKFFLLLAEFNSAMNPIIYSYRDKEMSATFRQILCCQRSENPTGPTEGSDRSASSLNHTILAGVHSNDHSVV

Row | binding affinity for LPAR1 | Molecule
1 | extremely low binding affinity | Antibody 2: Murine germline sequence Antibody 1 was derived from; VH SEQ ID NO: 25, VL SEQ ID NO: 26 (antibody, V domains shown) VH: QVQLQQSGAELARPGASVKLSCKASGYTFTSYGISWVKQRTGQGLEWIGEIYPRSGNTYYNEKFKGKATLTADKSSSTAYMELRSLTSEDSAVYFCARDYGSSRYAMDYWGQGTSVTVSS VL: SIVMTQTPKFLPVSAGDRVTMTCKASQSVGNNVAWYQQKPGQSPKLLIYYASNRYTGVPDRFTGSGSGTDFTFTISSVQVEDLAVYFCQQHYSSPLTFGAGTKLELK
2 | improved affinity | Antibody 5: Antibody 3 with VL mutation Q90H; VH SEQ ID NO: 27, VL SEQ ID NO: 31 (antibody, V domains shown) VH: QVQLQQSGAELARPGASVKLSCKASGYTFTSSGISWVKQRTGQGLEWIGEILPRSGYTNYNEKFKGKATLTADKSSSTAYMELRSLTSEDSAVYFCARDFGSSRYAMDYWGQGTSVTVSS VL: SIVMTQTPKFLPVSAGDRVTMTCKASQSVRYNVAWYQQKPGQSPKLLIYYASNRYTGVPDRFTGSGSGTDFTFTISSVQVEDLAVYFCQHHYNSPLTFGAGTKLELK
3 | large affinity gain | Antibody 6: Antibody 5 with LCDR3 reversion N93S; VH SEQ ID NO: 27, VL SEQ ID NO: 32 (antibody, V domains shown) VH: QVQLQQSGAELARPGASVKLSCKASGYTFTSSGISWVKQRTGQGLEWIGEILPRSGYTNYNEKFKGKATLTADKSSSTAYMELRSLTSEDSAVYFCARDFGSSRYAMDYWGQGTSVTVSS VL: SIVMTQTPKFLPVSAGDRVTMTCKASQSVRYNVAWYQQKPGQSPKLLIYYASNRYTGVPDRFTGSGSGTDFTFTISSVQVEDLAVYFCQHHYSSPLTFGAGTKLELK
